Test results as given in the supplement of paper PMC9170038.

System: MS2 coat protein
Experiment: apparent KD of MS2 coat protein; higher = weaker reporter binding
Details: Eterna round: R107
Method in brief: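 Illumina sequencing clusters served as templates for on-chip transcription of the designed RNA switches. SNAP-549-labelled MS2 coat protein was then titrated in twofold steps from 0.7 or 1.5 nM to 3 µM, allowing 0.8–1.5 h per step at first and 10–20 min per step later. The buffer held 100 mM Tris-HCl pH 7.5, 80 mM KCl and 4 mM MgCl2, without or with constant ligand. Apparent KD is the median per design of normalised cluster binding-curve fits.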

[1] = input ligand: theophylline 20 uM
[2] = input ligand: theophylline 2 mM
[3] = input ligand: tryptophan 2.4 mM

Sequence | apparent KD of MS2 coat protein (input ligand: arginine 13.2 mM) [nM] | apparent KD of MS2 coat protein (input ligand: none) [nM] | apparent KD of MS2 coat protein [1] [nM] | apparent KD of MS2 coat protein [2] [nM] | apparent KD of MS2 coat protein [3] [nM]
GGACUAACCUGAAGGAGCGACACGCAGAAACUGCAAAUUCCUCCACACGAGGAUCACCCGUGUCAGGUAGGUCGCAGGUUAGUCG [ArgBX 28] | 19 | 20.2 | 25.7 | 21.6 | 19.2
GGACUAACCUGAAGGAGCGGCACGCAGAAACUGCAAAUUCCUCCACACGAGGAUCACCCGUGUCAGGUAGGUCGCAGGUUAGUCG [ArgBX 28] | 18 | 17.1 | 23.3 | 22.9 | 20.3
GGAUAGGACACGGCCGCCACUAUCUAGGAUACUAGCAACAUUUGGGUACUUGAGGAUCACCCAAGUAGGACCGGGUGUCCUAUCG | 82.7 | 170 | 226 | 253 | 307
GGAUAGGACAGAAGGAGCGACAUGAGGAUCACCCAUGUCUACUACGUCGAAAGACGCUCAUGUCAGGUAGGUCGCUGUCCUAUCG [#28 Exclusion - Arginine B] | 70.9 | 241 | 263 | 458 | 250
GGAUGAAACUGAAGGAGCGAGAUCACAAGAAUGGGUCAAACAUGAGGAUCACCCAUGUAAUCUCAGGUAGGUCGCAGUGUCCCUU [Exclusion Arginine B GF 11] | 40.1 | 40.4 | 80.5 | 55.1 | 46.2
GGCACAUAGUCGGCCGCCACUAGAUUUUAGUGGAAUAACAUGAGGAUCACCCAUGUAUUUGGGACUAGGACCGGGACUAUGUGCC [Hyena] | 34.5 | – | 43.2 | 38 | –
GGGACACCGAGAAGGAGCGCAUCCAAACCACACAUGAGGAUCACCCAUGUAUAAAUAUGCAUGCAGGUAGGUCGCUCGGCGUCUC [Orordionbi] | 76.5 | 120 | 112 | 134 | 111
GGGAGGGAGGCGGCCGCCACUGAUUUUCAUAUAUAUAUAACAUGAGGAUCACCCAUGUGGAUAUACAGGACCGGGCCUUUUUUUU [aaaH] | 17.6 | – | 30.1 | 19.1 | –
GGGCGCUAUCCCGCGAGGGAUAGCGUUCGUCGAGGACCGGUACGGCCGCCACUCGAACGAGUGGUGACAUGAGGAUCACCCAUGU [Oaa] | 39 | – | 55.2 | 55.7 | –
GGGUACAUCACGGCCGCCACUCAUGUAAAUACAUGAGGAUCACCCAUGUCGAUGGAGACAUCGGAGAGGACCGGGUGAUGUACCG | 187 | – | 394 | 620 | –
GGGUAUGAUCCGGAUACCAGCGAACAUGAGGAUCACCCAUGUGACCUAAGAUAGGCUAAACGCCCUUGGCAGCCGAGAUUGCGUU [Same State Theophylline B GF7] | 32.4 | – | 49.7 | – | 41
GGGUGGUAGGCGGCCGCCACUGAUUUUCAUUUAUAGAUGACAUGAGGAUCACCCAUGUUUAUGUGCAGGACCGGGCCUGUUGUGG [aaaS] | 43.1 | 98.7 | 74.2 | 113 | 77.6
GGUACAUGAGGAUCACCCAUGUGUCAUGAUACCAGACAUGAAAAUGUCCCUUGGCAGCAUGCCUGAUGGCCGCGUUUAGCGGCCG [Liskovec] | 15.8 | 15.7 | 19.5 | 20.7 | 16.2
GGUAGCAGGACUGAUACCAGUCCAGCGAAUCAUACGACGCAACAUGAGGAUCACCCAUGUGACCCUUGGCAGCAGUCUGCUACCG [Same State Theophylline B GF 29] | 28.9 | – | 23 | – | 25.7
GGUCACCUAUCCUCAUUGGUGACCCUGGAAGGAGCGAGCGAGAGCUCAGGUAGGUCGCCAGAACAUGAGGAUCACCCAUGUAAUA [(A)''-(M)'-(A)'(Arg1)-(Arg2)-(M1)-(M2)_Design12] | 43.4 | 94.9 | 120 | 111 | 70.1
GGUCUCGCGGGCGAUACCAGCUUGAUCGUACUGGCCUGGUACAUGAGGAUCACCCAUGUAAGCCCUUGGCAGCGCGCGCGAGACC [#1 Exclusion - Theophylline B Attempt #5 (HarryS)] | 10.4 | 10.6 | 16.4 | 32.1 | 11.9
GGUCUCUGGAGCGAUACCAGCUUGAUCGUACUAGCCAGGUACAUGAGGAUCACCCAUGUAAGCCCUUGGCAGCGCUCCAGAGACC [#1 Exclusion - Theophylline B Attempt #9 (HarryS)] | 8.2 | 9.25 | 14.6 | 22.3 | 10.5
GGUGGGACUUGUGAUACCAGCCCAAUUCGAAUCGAAUUGCACAUGAGGAUCACCCAUGUCGGCCCUUGGCAGCAUGAGUAUUUAU [Ricerixe] | 152 | – | 149 | – | 313
GGUGUUACGUCGGCCGCCACUAUACUACAUGAGGAUCACCCAUGUCAUCCCUUCAAUUGGUAGCCUAGGACCGGGACAGAAUUCG [theeternabot_exclusion_MS2_Trp_B_8] | 33.2 | – | 55.2 | 43.8 | –

Sequence | apparent KD of MS2 coat protein (input ligand: arginine 13.2 mM) [nM] | apparent KD of MS2 coat protein (input ligand: none) [nM] | apparent KD of MS2 coat protein [1] [nM] | apparent KD of MS2 coat protein [2] [nM] | apparent KD of MS2 coat protein [3] [nM]
GGUUACUCUACGGCCGCCACUGAACAUGAGGAUCACCCAUGUAAUGUUCAGUAGUCUUUAGACAACAGGACCGGGUAGUGUAACC [Tryptophan B 6] | 109 | – | 236 | 271 | –
GGUUACUCUACGGCCGCCACUGUAAUGUAAAGAUUCCUGUACAUGACAUGAGGAUCACCCAUGUGCAGGACCGGGUAGUGUAACC [Tryptophan B 20] | 126 | – | 208 | 225 | –
GGUUACUCUACGGCCGCCACUGUUAAAUAAUAAACCUGUACAUAAACAUGAGGAUCACCCAUGUACAGGACCGGGUAGUGUAACC [Tryptophan B 8] | 27.6 | – | 41 | 35 | –
GGUUGAUGGUCGGCCGCCACUGUUGGUGCCAUGAGUUAAGUAUAGCACAUGAGGAUCACCCAUGUCAGGACCGGGACUCUACCCG [theeternabot_exclusion_MS2_Trp_B_16] | 15.1 | – | 19.6 | 20.9 | –
GGUUGGUCGCAGGAUACCAGUCCACCCGUGAUACUGCUAAACAUGAGGAUCACCCAUGUCGACCCUUGGCAGCCUGUCCAUGCGU [theeternabot_exclusion_MS2_Theo_B_45] | 18.8 | – | 27.3 | – | 17.1
GUACAUGAGGAUCACCCAUGUAUAGUUGAAGGAGCGACCAGAGGGUCAGGUAGGUCGCAGCACAUGGUGAAAACCCGUGUAUGCC [#1 Exclusion - Arginine A Attempt #21 (Inspired by Pi)] | 40.4 | 33.4 | 61.7 | 49.1 | 27.6
GUCCAAAGGUCGGCCGCCACUGUAGAGUGUGUUCUUUCACAUGAGGAUCACCCAUGUUGUUAUUAUAGGACCGGGAUUGUAGGAC [#21 Exclusion Tryptophan B] | 17.2 | – | 31.1 | 23.4 | –
GUCCACAUGAGGAUCACCCAUGUAAGUGGGCGAGGACCGGUACGGCCGCCACUCGACAUGUUGACGAAAAGUCAGCAUGAGGACA [#SwitchBubble 3 #GuTurnoff #Tail] | 44.1 | 108 | 154 | 114 | 101
GUCCUCGUGUCCGGUUUAGCGCAAAGCGCACGAGGACCGGUACGGCCGCCACUCGAAACAUGAGGAUCACCCAUGUGAAGAAUAA [Design 1] | 14.4 | 14.6 | 21.8 | 15.8 | 17.8
GUCUGUGUCUGAAGGAGCGACAUGAGGAUCACCCAUGUCUCCCGUUAUGGGAGUUCCUUAGGUCAGGUAGGUCGCAGACACAGAC [#1 Exclusion - Arginine B Attempt #27 (Inspired by Omei)] | 110 | 123 | 164 | 187 | 107
GUGGCGAUCACGGCCGCCACUGAGCAGGUCGAGCUUGACAUGAGGAUCACCCAUGUCUGACGAUACAGGACCGGGUGAUCUCCGC [Titiinanon] | 16.5 | 21.7 | 94.6 | 149 | 19.7
GUUGGACUUUCGGCCGCCACUGAGAGAGUCGUGUGAACAUGAGGAUCACCCAUGUAAUAUAUAUACAGGACCGGGAGGGUUGUAA [4.N] | 8.94 | 11.3 | 22.2 | 19.7 | 11.3
GUUUAAAGGUCGGCCGCCACUGUAGGAUGUGUUCUUUCACAUGAGGAUCACCCAUGUUGUUAUUAUAGGACCGGGAUUGUAGGAC [39MS split4] | 22.6 | 41.4 | 42.3 | 35.5 | 31.7
GUUUUAUACUCGGCCGCCACUGAGAGAGUCAUGUAAACAUGAGGAUCACCCAUGUAAUAUAUAUACAGGACCGGGAGUAGGGUAA [4.F] | 10.1 | – | 16.1 | 12.2 | –
UAAAACAUGAGGAUCACCCAUGUAUUGAGUCGAGGACCGGUACGGCCGCCACUCGGCAAUAAUAACGACGCAUAGCAUGUAGGAA [theeternabot_sameState_MS2_Trp_A_41] | 12.8 | – | 19.5 | 14.9 | –
UAAAACAUGAGGAUCACCCAUGUAUUUGAUACCAGAGUGAUGAUCCUCCCUUGGCAGCAAAUAACGCAUUGAUUACAAUGCGAAA [Mat - Same State Theophlline A - Mod of Eli - D28] | 34.8 | – | 121 | – | 36
UAAAAUAUCUGGGUGUAGGUAAUAACAGAUACCAGCCAGAUAACUGGCCCUUGGCAGCUGAAAACAUGAGGAUCACCCAUGUAAA [TheoAS 22 #OpenEnded #Ms2Late] | 28.1 | 30.7 | 50.3 | 236 | 28.6
UAAACUACACAUGAGGAUCACCCAUGUGGCCGAGGACCGGUACGGCCGCCACUCGUGUGUUAAUAAAAGAACCGCAAAGUUCUGU [Ticerear] | 49.8 | – | 401 | 452 | –
UAACAUGAGGAUCACCCAUGUAUAGUCGAUACCAGCUCUGUCUAGAGCCCUUGGCAGCGACACUGGUAUCCAUGGGUGUGGAUAC [(Ms2)-(Theo)-(T)'-(M)'-(M)''] | 20.1 | – | 98.4 | – | 103
